The source of these data is article PMC12713088, “Arabidopsis TRB Proteins Form Two Closely Related Complexes to Mediate H3K4me3 Demethylation and Transcriptional Repression” (Advanced Science, 2025).

Data set [1] addresses T1, TRB1;NAC050-N (Arabidopsis thaliana;Arabidopsis …, UniProt Q8VWK4;Q9SQX9 1-300;1-184, |).
T1 sequence 1: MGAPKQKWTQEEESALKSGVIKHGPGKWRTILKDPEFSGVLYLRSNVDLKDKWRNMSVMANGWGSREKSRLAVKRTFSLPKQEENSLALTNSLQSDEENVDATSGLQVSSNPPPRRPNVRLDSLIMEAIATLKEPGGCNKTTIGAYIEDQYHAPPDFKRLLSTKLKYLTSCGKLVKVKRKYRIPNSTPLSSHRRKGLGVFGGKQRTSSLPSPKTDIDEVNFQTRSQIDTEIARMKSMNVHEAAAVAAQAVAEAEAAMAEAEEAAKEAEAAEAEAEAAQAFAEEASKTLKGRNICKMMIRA
T1 sequence 2: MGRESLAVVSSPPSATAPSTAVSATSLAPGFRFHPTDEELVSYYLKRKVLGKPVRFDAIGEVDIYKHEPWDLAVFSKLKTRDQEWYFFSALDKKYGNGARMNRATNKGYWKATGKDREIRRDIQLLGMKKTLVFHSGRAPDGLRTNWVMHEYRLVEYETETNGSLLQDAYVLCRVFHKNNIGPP
Briefly: ITC; enhanced vs TRB1 alone; Kd only in figure; EMSA: 10 mM Tris-HCl pH 7.5, 50 mM NaCl, 1 mM EDTA, 5% glycerol, 1 mM DTT, 25 C, 30 min, 20 ng DNA + 1 ug protein; ITC: 20 mM Tris-HCl pH 7.5, 150 mM NaCl, 25 C, 5 uM protein, 100 uM DNA. As to conditions: protein: recombinant;recombinant; tags: His;MBP; blunt. (In general: ITC needs no label: the signal is the heat of the interaction.)

Data set [2] concerns the target T2, TRB1;HTH1 (Arabidopsis thaliana;Arabidopsis …, UniProt Q8VWK4;Q9SHL4 1-300;1-275, |).
T2 sequence 1: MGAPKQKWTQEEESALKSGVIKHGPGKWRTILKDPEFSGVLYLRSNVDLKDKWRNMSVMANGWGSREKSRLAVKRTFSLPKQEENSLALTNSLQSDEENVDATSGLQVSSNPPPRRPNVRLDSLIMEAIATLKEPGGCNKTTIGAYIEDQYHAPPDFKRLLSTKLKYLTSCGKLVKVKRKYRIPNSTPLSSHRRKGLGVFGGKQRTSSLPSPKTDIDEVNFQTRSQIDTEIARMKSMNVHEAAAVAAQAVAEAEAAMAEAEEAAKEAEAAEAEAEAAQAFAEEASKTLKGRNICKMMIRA
T2 sequence 2: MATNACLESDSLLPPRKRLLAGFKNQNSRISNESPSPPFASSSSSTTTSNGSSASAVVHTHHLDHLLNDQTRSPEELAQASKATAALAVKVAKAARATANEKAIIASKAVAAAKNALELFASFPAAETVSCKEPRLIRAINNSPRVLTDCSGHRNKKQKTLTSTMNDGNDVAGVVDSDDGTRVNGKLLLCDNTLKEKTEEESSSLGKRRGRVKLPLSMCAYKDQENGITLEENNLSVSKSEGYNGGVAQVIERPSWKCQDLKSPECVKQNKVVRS
The description is as above. Particulars: protein: recombinant;recombinant; tags: His;His or MBP (EMSA construct not specified); blunt. In general terms: In EMSA bound probe runs differently from free probe, usually more slowly.

For data set [3], the target named is T3, TRB3 (Arabidopsis thaliana, UniProt Q9M2X3 1-295).
T3 sequence: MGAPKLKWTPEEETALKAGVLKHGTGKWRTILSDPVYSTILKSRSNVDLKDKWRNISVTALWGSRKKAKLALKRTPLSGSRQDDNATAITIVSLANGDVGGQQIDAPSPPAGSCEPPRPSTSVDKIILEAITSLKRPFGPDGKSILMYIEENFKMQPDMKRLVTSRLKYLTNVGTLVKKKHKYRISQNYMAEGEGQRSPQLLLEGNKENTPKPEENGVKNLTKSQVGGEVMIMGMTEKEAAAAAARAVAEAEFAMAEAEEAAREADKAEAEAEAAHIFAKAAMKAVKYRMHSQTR
Kind of data set: EMSA; EMSA: 10 mM Tris-HCl pH 7.5, 50 mM NaCl, 1 mM EDTA, 5% glycerol, 1 mM DTT, 25 C, 30 min, 20 ng DNA + 1 ug protein; ITC: 20 mM Tris-HCl pH 7.5, 150 mM NaCl, 25 C, 5 uM protein, 100 uM DNA. Particulars: protein: recombinant; tags: His; label: Cy5 at 5' of strand 1; blunt.

Data set [4] deals with T4, TRB1-MybΔ-GH1Δ (Arabidopsis thaliana, UniProt Q8VWK4 61-300, del1-60;del114-185).
T4 sequence: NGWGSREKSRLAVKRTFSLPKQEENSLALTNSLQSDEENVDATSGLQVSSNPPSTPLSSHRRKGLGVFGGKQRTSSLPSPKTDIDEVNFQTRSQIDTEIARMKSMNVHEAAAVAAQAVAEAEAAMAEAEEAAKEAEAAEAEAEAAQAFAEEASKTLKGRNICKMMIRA
The description is as above. Particulars: protein: recombinant; label: Cy5 at 5' of strand 1; blunt.

Data set [5] has as its target T5, TRB2 (Arabidopsis thaliana, UniProt Q9FJW5 1-299).
T5 sequence: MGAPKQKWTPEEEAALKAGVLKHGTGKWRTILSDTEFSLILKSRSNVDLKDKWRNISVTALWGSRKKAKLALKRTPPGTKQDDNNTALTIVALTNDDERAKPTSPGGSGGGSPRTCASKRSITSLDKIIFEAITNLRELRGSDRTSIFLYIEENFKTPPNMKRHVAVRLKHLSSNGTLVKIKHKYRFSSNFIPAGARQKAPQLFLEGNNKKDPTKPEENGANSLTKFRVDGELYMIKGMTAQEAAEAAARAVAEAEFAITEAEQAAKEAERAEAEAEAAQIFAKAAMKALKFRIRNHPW
The data set is described as above. As to conditions: protein: recombinant; tags: His; label: Cy5 at 5' of strand 1; blunt.

The target of data set [6] is T6, TRB1-GH1Δ (Arabidopsis thaliana, UniProt Q8VWK4 1-300, del114-185).
T6 sequence: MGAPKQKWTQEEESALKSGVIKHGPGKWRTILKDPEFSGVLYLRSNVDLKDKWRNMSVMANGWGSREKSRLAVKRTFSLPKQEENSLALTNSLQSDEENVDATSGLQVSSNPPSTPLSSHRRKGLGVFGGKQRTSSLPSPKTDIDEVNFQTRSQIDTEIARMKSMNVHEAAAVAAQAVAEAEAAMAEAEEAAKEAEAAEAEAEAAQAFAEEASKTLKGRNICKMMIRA
The data set is described as above. As to conditions: protein: recombinant; label: Cy5 at 5' of strand 1; blunt.

The target of data set [7] is T7, TRB1-1 (Arabidopsis thaliana, UniProt Q8VWK4 1-185).
T7 sequence: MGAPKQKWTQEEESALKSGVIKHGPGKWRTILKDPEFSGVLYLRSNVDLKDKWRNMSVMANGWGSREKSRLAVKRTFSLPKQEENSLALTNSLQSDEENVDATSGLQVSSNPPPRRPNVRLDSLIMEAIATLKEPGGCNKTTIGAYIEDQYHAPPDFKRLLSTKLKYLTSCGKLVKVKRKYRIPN
The data set is described as above. As to conditions: protein: recombinant; tags: His; label: Cy5 at 5' of strand 1; blunt.

Data set [8] deals with T8, TRB1 (Arabidopsis thaliana, UniProt Q8VWK4 1-300).
T8 sequence: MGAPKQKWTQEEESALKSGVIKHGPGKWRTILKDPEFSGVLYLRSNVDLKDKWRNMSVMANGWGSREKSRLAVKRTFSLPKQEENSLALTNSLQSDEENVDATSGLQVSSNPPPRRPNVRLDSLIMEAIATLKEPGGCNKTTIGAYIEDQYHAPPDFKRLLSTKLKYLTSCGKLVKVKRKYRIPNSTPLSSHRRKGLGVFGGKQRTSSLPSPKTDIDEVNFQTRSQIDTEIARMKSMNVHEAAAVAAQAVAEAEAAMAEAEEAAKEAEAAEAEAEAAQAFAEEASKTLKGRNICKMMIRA
Described as above. As to conditions: protein: recombinant; tags: His; label: Cy5 at 5' of strand 1; blunt.

Data set [9] concerns the target T1, TRB1;NAC050-N. Briefly: EMSA; larger complex, enhanced vs TRB1 alone; EMSA: 10 mM Tris-HCl pH 7.5, 50 mM NaCl, 1 mM EDTA, 5% glycerol, 1 mM DTT, 25 C, 30 min, 20 ng DNA + 1 ug protein; ITC: 20 mM Tris-HCl pH 7.5, 150 mM NaCl, 25 C, 5 uM protein, 100 uM DNA. As to conditions: protein: recombinant;recombinant; tags: His;MBP; label: Cy5 at 5' of strand 1; blunt.
The target in data set [10] is T2, TRB1;HTH1. The description is as above. Particulars: protein: recombinant;recombinant; tags: His;His or MBP (EMSA construct not specified); label: Cy5 at 5' of strand 1; blunt.
For data set [11], the target named is T9, ICU11, recombinant, GST- or MBP-tagged (pull-down) (Arabidopsis thaliana, UniProt Q3ED68 1-397).
T9 construct: ICU11, Arabidopsis thaliana, AT1G22950; full length in pGEX6P-1 (GST) or pET-30a (MBP); source: E. coli BL21, purified (GST beads or MBP beads); not shown: GST or MBP (both forms were made)
T9 sequence (looked up): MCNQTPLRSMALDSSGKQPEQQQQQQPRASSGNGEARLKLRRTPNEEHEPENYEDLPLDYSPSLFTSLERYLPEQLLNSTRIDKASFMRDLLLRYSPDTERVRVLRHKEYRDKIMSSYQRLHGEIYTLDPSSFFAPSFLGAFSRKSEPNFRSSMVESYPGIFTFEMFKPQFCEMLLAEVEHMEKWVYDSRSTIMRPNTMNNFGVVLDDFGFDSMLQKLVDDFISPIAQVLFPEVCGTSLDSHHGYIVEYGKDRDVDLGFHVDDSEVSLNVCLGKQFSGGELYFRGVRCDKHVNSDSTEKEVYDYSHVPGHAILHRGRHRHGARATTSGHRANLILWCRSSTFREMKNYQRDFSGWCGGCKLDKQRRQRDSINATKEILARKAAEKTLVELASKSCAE
Briefly: pull-down; purified proteins mixed in GST-tag lysis buffer (20 mM Tris-HCl pH 7.5, 150 mM NaCl, 1 mM DTT) at 4 °C for 1 h, then GST or MBP beads; immunoblot with GST, MBP or His antibody. As to conditions: both partners purified. (A western blot detects proteins with antibodies after separation by electrophoresis.)

In data set [12] the target is T10, ICU11-GST, recombinant (gel filtration) (Arabidopsis thaliana, UniProt Q3ED68 1-397).
T10 construct: ICU11, Arabidopsis thaliana, AT1G22950; full length in pGEX6P-1; May be the same construct as m20 in some pull-downs; source: E. coli BL21, purified (GST beads)
T10 sequence (looked up): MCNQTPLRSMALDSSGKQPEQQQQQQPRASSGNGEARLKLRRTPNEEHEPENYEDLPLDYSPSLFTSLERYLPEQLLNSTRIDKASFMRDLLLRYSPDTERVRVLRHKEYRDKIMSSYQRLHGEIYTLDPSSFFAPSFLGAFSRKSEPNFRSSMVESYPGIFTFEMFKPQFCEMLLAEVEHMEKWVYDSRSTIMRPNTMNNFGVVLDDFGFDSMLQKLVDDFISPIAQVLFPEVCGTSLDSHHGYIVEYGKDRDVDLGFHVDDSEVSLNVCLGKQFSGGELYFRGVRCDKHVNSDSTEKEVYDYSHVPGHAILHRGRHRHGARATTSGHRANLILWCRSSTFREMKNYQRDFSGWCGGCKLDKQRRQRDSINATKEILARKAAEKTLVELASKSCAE
Kind of data set: SEC; purified proteins mixed in equivalent molar amounts, 4 °C overnight, Superose 6 10/300GL; fractions detected by immunoblotting (GST, FLAG, MBP, HIS). As to conditions: both partners purified.

B1: Probe 1 for ITC (dsDNA)
DNA 1: ATCGAATTTAGGGCAAAATG
DNA 2: CATTTTGCCCTAAATTCGAT
Regarding B1, the binding result in data set [1] and in data set [2] was “binds” throughout.

B2: Probe 1 (P1) (dsDNA)
DNA 1: ATCGAATTTAGGGCAAAATG
DNA 2: CATTTTGCCCTAAATTCGAT
In the case of B2, the binding result in data set [3] is “binds”; in data set [4] it was “no binding”; in data set [5], “binds”; in data set [6] it was “binds”; in [7], “binds”; in [8], “binds”. The binding result in [9] and in data set [10] was “binds” throughout.

B3: TRB1-His, recombinant (natural protein, Arabidopsis thaliana, UniProt Q8VWK4 1-300, looked up)
chain: MGAPKQKWTQEEESALKSGVIKHGPGKWRTILKDPEFSGVLYLRSNVDLKDKWRNMSVMANGWGSREKSRLAVKRTFSLPKQEENSLALTNSLQSDEENVDATSGLQVSSNPPPRRPNVRLDSLIMEAIATLKEPGGCNKTTIGAYIEDQYHAPPDFKRLLSTKLKYLTSCGKLVKVKRKYRIPNSTPLSSHRRKGLGVFGGKQRTSSLPSPKTDIDEVNFQTRSQIDTEIARMKSMNVHEAAAVAAQAVAEAEAAMAEAEEAAKEAEAAEAEAEAAQAFAEEASKTLKGRNICKMMIRA
notes: TRB1, Arabidopsis thaliana, AT1G49950; full length in the vector pSMT3; pSMT3 is recalled to add an N-terminal His-SUMO; source: E. coli BL21, purified (His beads)
In the case of B3, the binding result in [11] and in data set [12] was “binds” in each case.
